The target in assay [1] is T1, wild-type calreticulin (CALRwt) expressed with MPL in engineered cancer cells (UniProt P27797 18-417, limits assumed).
T1 construct: whole, on cells; also called OCI-M2 MPL CALRwt
T1 sequence (looked up): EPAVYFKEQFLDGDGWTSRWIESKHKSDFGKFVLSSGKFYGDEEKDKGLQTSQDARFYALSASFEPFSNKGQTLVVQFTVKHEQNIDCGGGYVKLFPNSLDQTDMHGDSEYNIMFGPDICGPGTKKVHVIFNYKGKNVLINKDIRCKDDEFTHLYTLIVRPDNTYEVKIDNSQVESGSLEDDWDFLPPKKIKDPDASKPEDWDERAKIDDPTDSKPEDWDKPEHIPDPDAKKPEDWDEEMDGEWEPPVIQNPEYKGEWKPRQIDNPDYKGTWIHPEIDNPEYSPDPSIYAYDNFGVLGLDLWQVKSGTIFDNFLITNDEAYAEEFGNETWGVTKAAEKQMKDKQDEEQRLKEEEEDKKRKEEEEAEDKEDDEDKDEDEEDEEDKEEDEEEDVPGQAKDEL
In words: flow cytometry on ELF-153 MPL CALRwt cells, 1 h at 37 C, AF647 secondary antibody, Geometric Mean. Here is the method: (§1) FIGS. 21A-21F depict binding of different CALRmutxCD3 bispecific antibodies to CALRmut-negative or CALRmut-positive cells. Flow cytometry was used to evaluate CALRmutxCD3 binding to CALRmut-negative and CALRmut-positive cancer cells in vitro. CALRmutxCD3 antibodies were tested on a panel of cell lines, engineered to express MPL and CALRmut, after 1 hour 37° C. incubation, with subsequent incubation with secondary AF647-labeled antibody. Geometric mean fluorescence intensity of AF647 was measured to determine antibody binding.
Background: In flow cytometry, cells or beads pass a laser one at a time.

For assay [2], the target named is T2, CD3 on primary human pan T cells (human, UniProt P07766 23-207).
T2 construct: whole, on cells; also called CD3e; CD3ε
T2 sequence (P07766 23-207): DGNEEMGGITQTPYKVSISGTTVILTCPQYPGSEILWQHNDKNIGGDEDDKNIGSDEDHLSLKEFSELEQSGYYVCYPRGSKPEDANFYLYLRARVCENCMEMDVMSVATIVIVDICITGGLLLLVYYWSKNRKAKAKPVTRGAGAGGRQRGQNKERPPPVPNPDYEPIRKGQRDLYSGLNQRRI
In words: flow cytometry on pan CD3 T cells, 1 h at 37 C, AF647 secondary antibody, Geometric Mean. Here is the method:
FIG. 22 depicts binding of different CALRmutxCD3 bispecific antibodies to pan CD3 T cells. Flow cytometry was used to evaluate CALRmutxCD3 binding to pan CD3 T cells in vitro, by 1 hour 37° C. incubation, with subsequent incubation with secondary AF647-labeled antibody. Geometric mean fluorescence intensity of AF647 was measured to determine antibody binding.
Flow cytometry was used to evaluate the CD3 arm binding of CALRmutxCD3 antibodies listed in Table 21 to CD3+ pan T cells from healthy human donor. CALRmutxCD3 were tested after 1 hour 37° C. incubation with pan T cells.

The target in assay [3] is T3, CALRins5 (mutant calreticulin, 5 base pair insertion, Type 2) expressed with MPL on engineered cancer cells (UniProt P27797 18-417).
T3 construct: whole, on cells; On the cell surface in complex with MPL; also called OCI-M2 MPL CALRins5
T3 sequence (looked up): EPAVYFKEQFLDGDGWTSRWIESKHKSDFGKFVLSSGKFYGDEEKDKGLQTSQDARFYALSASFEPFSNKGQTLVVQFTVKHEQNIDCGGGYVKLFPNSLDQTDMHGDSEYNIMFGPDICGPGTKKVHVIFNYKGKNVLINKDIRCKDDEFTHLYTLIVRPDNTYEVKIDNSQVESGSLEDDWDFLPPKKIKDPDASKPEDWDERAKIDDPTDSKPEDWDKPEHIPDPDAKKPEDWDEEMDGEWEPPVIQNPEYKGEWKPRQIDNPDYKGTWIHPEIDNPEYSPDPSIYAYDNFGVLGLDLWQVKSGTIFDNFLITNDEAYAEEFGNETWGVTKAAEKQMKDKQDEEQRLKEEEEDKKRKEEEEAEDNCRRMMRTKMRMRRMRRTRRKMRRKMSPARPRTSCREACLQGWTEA
Kind of assay: flow cytometry on ELF-153 MPL CALRins5 cells, 1 h at 37 C, AF647 secondary antibody, Geometric Mean. On the procedure: as §1

In assay [4] the target is T4, CALRdel52 (mutant calreticulin, 52 base pair deletion, Type 1) expressed with MPL on engineered cancer cells (UniProt P27797 18-417).
T4 construct: whole, on cells; On the cell surface in complex with MPL; also called OCI-M2 MPL CALRdel52
T4 sequence (looked up): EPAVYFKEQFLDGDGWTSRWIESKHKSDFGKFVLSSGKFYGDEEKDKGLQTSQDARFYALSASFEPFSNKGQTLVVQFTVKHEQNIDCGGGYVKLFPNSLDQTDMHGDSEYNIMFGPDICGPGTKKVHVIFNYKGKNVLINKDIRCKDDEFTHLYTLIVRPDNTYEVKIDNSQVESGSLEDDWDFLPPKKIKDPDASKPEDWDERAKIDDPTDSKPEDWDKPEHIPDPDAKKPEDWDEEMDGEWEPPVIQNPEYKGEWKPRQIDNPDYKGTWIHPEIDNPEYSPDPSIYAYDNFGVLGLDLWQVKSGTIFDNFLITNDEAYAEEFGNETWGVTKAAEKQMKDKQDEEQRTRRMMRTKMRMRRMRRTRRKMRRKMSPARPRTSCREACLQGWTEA
In words: flow cytometry on OCI-M2 MPL CALRdel52 cells, 1 h at 37 C, AF647 secondary antibody, Geometric Mean. Here is the method:
as §1

B1: CALRB1508 CALRmut x CD3 bispecific antibody (bispecific antibody, human IgG1, kappa, L234A L235A)
scFv: DIQMTQSPSSLSASVGDRVTITCRARQSIGTAIHWYQQKPGCAPKLLIKYASESISGVPSRFSGSGSGTDFTLTISSLQPEDFATYYCQQSGSWPYTFGQGTKLEIKGGGSGGSGGCPPCGGSGGEVQLVESGGGLVKPGGSLRLSCAASGFTFSRYNMNWVRQAPGKGLEWVSSISTSSNYIYYADSVKGRFTFSRDNAKNSLDLQMSGLRAEDTAIYYCTRGWGPFDYWGCGTLVTVSSEPKSSDKTHTCPPCPAPEAAGGPSVFLFPPKPKDTLMISRTPEVTCVVVSVSHEDPEVKFNWYVDGVEVHNAKTKPREEQYNSTYRVVSVLTVLHQDWLNGKEYKCKVSNKALPAPIEKTISKAKGQPREPQVYTLPPSREEMTKNQVSLWCLVKGFYPSDIAVEWESNGQPENNYKTTPPVLDSDGSFFLYSKLTVDKSRWQQGNVFSCSVMHEALHNHYTQKSLSLSPGK
heavy: QVQLVQSGAEVKKPGASVKVSCKASGFSLSSYAMSWVRQAPGQGLEWMGVIDSGGTTYYAQKFQGRVTMTRDTSTSTVYMELSSLRSEDTAVYYCARESYAGYDYYGHPIPYGMEPWGQGTLVTVSSASTKGPSVFPLAPSSKSTSGGTAALGCLVKDYFPEPVTVSWNSGALTSGVHTFPAVLQSSGLYSLSSVVTVPSSSLGTQTYICNVNHKPSNTKVDKKVEPKSCDKTHTCPPCPAPEAAGGPSVFLFPPKPKDTLMISRTPEVTCVVVSVSHEDPEVKFNWYVDGVEVHNAKTKPREEQYNSTYRVVSVLTVLHQDWLNGKEYKCKVSNKALPAPIEKTISKAKGQPREPQVYTLPPSREEMTKNQVSLSCAVKGFYPSDIAVEWESNGQPENNYKTTPPVLDSDGSFFLVSKLTVDKSRWQQGNVFSCSVMHEALHNRFTQKSLSLSPGK
light: DIQMTQSPSTLSASVGDRVTITCQASQSLYNNKNLAWYQQKPGKAPKLLIYYASALASGVPSRFSGSGSGTEFTLTISSLQPDDFATYYCQGEFNCNSADCNSFGGGTKVEIKRTVAAPSVFIFPPSDEQLKSGTASVVCLLNNFYPREAKVQWKVDNALQSGNSQESVTEQDSKDSTYSLSSTLTLSKADYEKHKVYACEVTHQGLSSPVTKSFNRGEC
notes: Chain A: CD3 spFv-Fc; Chain B: CALRB1114 Fab arm
In general, EC50 (read off the curve) refers to the midpoint of the concentration-response curve. Low values mean greater potency, high ones weaker potency. Regarding B1, the binding result in assay [1] is reported as “no binding (tested: 100 nM)”. In addition, the “EC50 (read off the curve)” value in assay [2] is approximately 3 nM; in assay [3], approximately 3 nM; in assay [4], approximately 4 nM.

B2: C3CRB126 CALRmut x CD3 bispecific antibody (bispecific antibody, human IgG1, kappa, L234A L235A)
heavy 1: QVQLVQSGAEVKKPGASVKVSCKASGFSLSSYAMSWVRQAPGQGLEWMGVIDSGGTTYYAQKFQGRVTMTRDTSTSTVYMELSSLRSEDTAVYYCARESYAGYDYYGHPIPYGMEPWGQGTLVTVSSASTKGPSVFPLAPSSKSTSGGTAALGCLVKDYFPEPVTVSWNSGALTSGVHTFPAVLQSSGLYSLSSVVTVPSSSLGTQTYICNVNHKPSNTKVDKKVEPKSCGGGGSGGGGSDIQMTQSPSSLSASVGDRVTITCRARQSIGTAIHWYQQKPGCAPKLLIKYASESISGVPSRFSGSGSGTDFTLTISSLQPEDFATYYCQQSGSWPYTFGQGTKLEIKGGGSGGSGGCPPCGGSGGEVQLVESGGGLVKPGGSLRLSCAASGFTFSRYNMNWVRQAPGKGLEWVSSISTSSNYIYYADSVKGRFTFSRDNAKNSLDLQMSGLRAEDTAIYYCTRGWGPFDYWGCGTLVTVSSEPKSSDKTHTCPPCPAPEAAGGPSVFLFPPKPKDTLMISRTPEVTCVVVSVSHEDPEVKFNWYVDGVEVHNAKTKPREEQYNSTYRVVSVLTVLHQDWLNGKEYKCKVSNKALPAPIEKTISKAKGQPREPQVYTLPPSREEMTKNQVSLWCLVKGFYPSDIAVEWESNGQPENNYKTTPPVLDSDGSFFLYSKLTVDKSRWQQGNVFSCSVMHEALHNHYTQKSLSLSPGK
heavy 2: B1 heavy
light: B1 light
notes: Chain A heavy: CALRB1114 Fab heavy part, CD3 spFv (LH), Fc; Chain B heavy: CALRB1114
For B2, the binding result is on record as “no binding (tested: 100 nM)” in assay [1] and “binds” in assay [2]. Moreover, the “EC50 (read off the curve)” value in assay [4] is approximately 1 nM.

B3: C3CRB75 CALRmut x CD3 bispecific antibody (bispecific antibody, human IgG1, kappa, L234A L235A)
heavy 1: EVQLLESGGGLVQPGGSLRLSCAVSGIDLSNNAISWVRQAPGKGLEYVGVIGNTGDTYYADSAKGRFTISRDSSKTTLYLQMNSLRAEDTAVYFCVRGPPSYSSSVKNIWGQGTLVTVSSASTKGPSVFPLAPSSKSTSGGTAALGCLVKDYFPEPVTVSWNSGALTSGVHTFPAVLQSSGLYSLSSVVTVPSSSLGTQTYICNVNHKPSNTKVDKKVEPKSCDGGGGSGGGGSDIQMTQSPSSLSASVGDRVTITCRARQSIGTAIHWYQQKPGCAPKLLIKYASESISGVPSRFSGSGSGTDFTLTISSLQPEDFATYYCQQSGSWPYTFGQGTKLEIKGGGSGGSGGCPPCGGSGGEVQLVESGGGLVKPGGSLRLSCAASGFTFSRYNMNWVRQAPGKGLEWVSSISTSSNYIYYADSVKGRFTFSRDNAKNSLDLQMSGLRAEDTAIYYCTRGWGPFDYWGCGTLVTVSSEPKSSDKTHTCPPCPAPEAAGGPSVFLFPPKPKDTLMISRTPEVTCVVVSVSHEDPEVKFNWYVDGVEVHNAKTKPREEQYNSTYRVVSVLTVLHQDWLNGKEYKCKVSNKALPAPIEKTISKAKGQPREPQVYTLPPSREEMTKNQVSLWCLVKGFYPSDIAVEWESNGQPENNYKTTPPVLDSDGSFFLYSKLTVDKSRWQQGNVFSCSVMHEALHNHYTQKSLSLSPGK
heavy 2: EVQLLESGGGLVQPGGSLRLSCAVSGIDLSNNAISWVRQAPGKGLEYVGVIGNTGDTYYADSAKGRFTISRDSSKTTLYLQMNSLRAEDTAVYFCVRGPPSYSSSVKNIWGQGTLVTVSSASTKGPSVFPLAPSSKSTSGGTAALGCLVKDYFPEPVTVSWNSGALTSGVHTFPAVLQSSGLYSLSSVVTVPSSSLGTQTYICNVNHKPSNTKVDKKVEPKSCDKTHTCPPCPAPEAAGGPSVFLFPPKPKDTLMISRTPEVTCVVVSVSHEDPEVKFNWYVDGVEVHNAKTKPREEQYNSTYRVVSVLTVLHQDWLNGKEYKCKVSNKALPAPIEKTISKAKGQPREPQVYTLPPSREEMTKNQVSLSCAVKGFYPSDIAVEWESNGQPENNYKTTPPVLDSDGSFFLVSKLTVDKSRWQQGNVFSCSVMHEALHNRFTQKSLSLSPGK
light: DIQMTQSPSSVSASVGDRVTITCQSSQSVYNNNWLSWLQQKPGKAPKRLIYDASKLESGVPSRFSGSGSGTDFTLTISSVQPEDAATYYCAGGFTGNVYTFGGGTKVEIKRTVAAPSVFIFPPSDEQLKSGTASVVCLLNNFYPREAKVQWKVDNALQSGNSQESVTEQDSKDSTYSLSSTLTLSKADYEKHKVYACEVTHQGLSSPVTKSFNRGEC
notes: Chain A heavy: CALRB421 Fab heavy part, CD3 spFv, Fc; Chain B heavy: CALRB421; one light chain on each
Take B3: the binding result is “no binding (tested: 100 nM)” in assay [1] and “binds” in assay [2]. The “EC50 (read off the curve)” value is approximately 0.5 nM in assay [3] and approximately 2 nM in assay [4].

The values are drawn from US20260125457A1 (Janssen / Centocor, published 2026).
